Reference: US20250296979A1

Molecular target: VEGF-C and VEGF-D
Experiment: ELISA; after storage at -20 C or 5 C for up to 24 months

- decrease of binding activity against initiation of the stability study: 9 to 19%
Substance: OPT-302 (Fc fusion)
